The values that follow come from the supplement of paper PMC10598134.

± gives the standard deviation.

The series can be described thus: collision cross section of unmodified peptide (TIMS, N2, iRT-aligned); higher = larger / more extended gas-phase ion. As to the method: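 Unmodified synthetic counterpart peptides (ProteomeTools / JPT), analysed by nanoLC-TIMS-QTOF (dda-PASEF). 1/K0 was aligned run-wise to spiked iRT peptides and converted to CCS in N2 (Mason-Schamp). Values are the mean of 1-3 technical replicates for the most abundant feature at each charge state. The same unmodified peptide is repeated across rows and is averaged.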

Consider DDSFLGKLGGTLAR, for which the collision cross section was 410.69 ± 1.4 Å² (charge state: 2) and 475.25 ± 2.7 Å² (charge state: 3).

DDSNLYINVK had a collision cross section (charge state: 2) of 367.7 ± 0.74 Å². As for DESFLGKLGGTLAR, the collision cross section reads like this: (charge state: 2) 409.59 ± 1.4 Å²; (charge state: 3) 475.21 ± 2.7 Å². For DFAFYNPRLQGK the same measures were 408.01 ± 1.3 Å² and 473.2 ± 2.9 Å².

Regarding DFDTALKHYDK, the collision cross section was found to be 391.79 ± 0.64 Å² (charge state: 2) and 447.79 ± 3.3 Å² (charge state: 3). The corresponding values for DFSLTSSSQTPGATK are 412.17 ± 0.66 Å² and 461.25 ± 8.8 Å². On to DHLSDKESK, for which the collision cross section by setting is: (charge state: 2) 345.48 ± 0.71 Å²; (charge state: 3) 415 ± 3.9 Å². The corresponding values for DHSKPISNPSDNK are 390.86 ± 0.14 Å² and 478.96 ± 0.22 Å². The substance DKALPLEAEVAPVK registered a collision cross section (charge state: 2) of 407.43 ± 3.2 Å² and a collision cross section (charge state: 3) of 507.63 ± 4.6 Å².

DLATVYVDVLK showed a collision cross section (charge state: 2) of 382.78 ± 0.75 Å². Same read-out and setting: in the case of DLEEAEEYK it was 358.42 ± 0.55 Å².

Turning to DLGKFQVATDALK, the collision cross section runs as follows: (charge state: 2) 413.55 ± 3.7 Å²; (charge state: 3) 498.11 ± 6.1 Å². The corresponding values for DLSTVEALQNLKNLK are 472.99 ± 2.9 Å² and 543.69 ± 1.2 Å².

For DLTTAGAVTQCYR, the collision cross section is, setting by setting: (charge state: 2) 396.98 ± 0.16 Å²; (charge state: 3) 489.14 Å². The substance DLYEPSHGAK displayed a collision cross section (charge state: 2) of 358.09 ± 0.48 Å² and a collision cross section (charge state: 3) of 429.53 ± 1.1 Å². Consider DNNNSNNRGSYNR, for which the collision cross section (charge state: 3) was determined as 461.19 ± 2.6 Å².

Under “charge state: 3”, DSINFLDHINGKK displayed a collision cross section of 459.87 ± 3.8 Å². Where the note is “charge state: 2”, DSLGVSFPEELACK showed a collision cross section of 418.18 ± 0.66 Å². For the substance DSRGGGGNFGPGPGSNFR, the collision cross section (charge state: 3) was determined as 474.13 ± 0.75 Å². Turning to DSSPTTNSKLSALQR, the collision cross section by setting is: (charge state: 2) 418.1 ± 2.2 Å²; (charge state: 3) 485.64 ± 4.2 Å². The corresponding values for DTGEKLTVAENEAETK are 436.86 ± 2.7 Å² and 520.99 ± 1.8 Å².

For the substance DTPTSAGPNSFNKGK, the collision cross section was 410.87 ± 2 Å² (charge state: 2) and 465.77 ± 5.4 Å² (charge state: 3). Regarding DVFISAAER, the collision cross section (charge state: 2) came out at 340.13 ± 0.68 Å². Take DVNAAIAAIKTK: the collision cross section is 391.89 ± 2.3 Å² (charge state: 2) and 461.97 ± 1.6 Å² (charge state: 3). Consider DYGNSPLHR, for which the collision cross section reads like this: (charge state: 2) 339.65 ± 0.48 Å²; (charge state: 3) 430.38 ± 2 Å².

Regarding DYILEGEPGK, the collision cross section (charge state: 2) is on record as 348.93 ± 0.15 Å².

For the substance DYNVTANSK, the collision cross section (charge state: 2) is given as 328.46 ± 2 Å².

Regarding DYQPGITFIVVQK, the collision cross section (charge state: 2) is 401.42 ± 0.24 Å² and the collision cross section (charge state: 3) was 485.74 Å². In the case of DYQPGITFIVVQKR, the collision cross section was found to be 447.74 ± 2 Å² (charge state: 2) and 520.02 ± 0.34 Å² (charge state: 3). Turning to DYSAPVNFISAGLKK, the collision cross section by setting is: (charge state: 2) 443.09 ± 2.3 Å²; (charge state: 3) 512.68 ± 2.7 Å².

Take DYSQPTAAATVQDIK: the collision cross section (charge state: 2) was 421.28 ± 0.57 Å². With DYSSGFGGKYGVQADR, the collision cross section is, setting by setting: (charge state: 2) 432 ± 2.6 Å²; (charge state: 3) 489.69 ± 5.9 Å². In turn, DYSVTANSK registered a collision cross section (charge state: 2) of 329.32 ± 0.58 Å².

DYVSQFEGSALGK yielded a collision cross section (charge state: 2) of 385.54 ± 0.47 Å². As to EEKPAVTAAPK, the collision cross section is on record as 359.42 ± 0.68 Å² (charge state: 2) and 467.02 ± 0.22 Å² (charge state: 3).

For EGFSIPVSADGFK, for the setting “charge state: 2”, the collision cross section stood at 384.97 ± 0.14 Å². With ELANFDPSRPGPPSGR, the collision cross section (charge state: 3) is on record as 494.4 ± 1 Å². Same read-out and setting: in the case of EPFSGDHSADGFEVTSR it was 491.61 ± 0.86 Å². With ESISVSSEQLAQFR, the collision cross section (charge state: 2) came out at 416.66 ± 2.8 Å².

Consider ETTPSSLAVTQTMATK, for which, under “charge state: 2”, the collision cross section is 434.06 ± 0.13 Å².

On to EVVKPVPITSPAVSK, for which the collision cross section came out at 412.92 ± 0.57 Å² (charge state: 2) and 534.95 ± 0.86 Å² (charge state: 3). As for FDDTNPEKEEAK, the collision cross section is reported as 396.22 ± 1.8 Å² (charge state: 2) and 501.37 ± 2.2 Å² (charge state: 3). Under “charge state: 2”, FEGAIYR showed a collision cross section of 317.08 ± 0.15 Å². For the substance FGDSRGGGGNFGPGPGSNFR, the collision cross section (charge state: 3) was 494.59 ± 1.9 Å². Consider FGRGTGLTQPSQR, for which the collision cross section runs as follows: (charge state: 2) 395.55 ± 1.4 Å²; (charge state: 3) 470.69 ± 2.1 Å². For FGSRGGPGGGFR the same measures were 358.01 ± 0.11 Å² and 437.12 ± 3.8 Å². The corresponding values for FGTINIVHPKLGSYTK are 468.97 ± 3 Å² and 531.6 ± 4.8 Å². Consider FGVEAFSDCLR, for which the collision cross section (charge state: 2) worked out at 384.72 ± 0.67 Å².

As to FGYVDFESAEDLEK, the collision cross section (charge state: 2) was 428.91 ± 0.24 Å².

In the case of FHYQDQEFLK, the collision cross section (charge state: 2) worked out at 406.29 ± 0.68 Å² and the collision cross section (charge state: 3) is 457.95 ± 1.7 Å². Take FIHQQPQSSSPVYGSSAK: the collision cross section (charge state: 3) stood at 514.9 ± 0.21 Å². As to FLQEFYQDDELGK, the collision cross section (charge state: 2) is recorded as 424.29 ± 0.5 Å².

In the case of FLQEFYQDDELGKK, the collision cross section came out at 448.73 ± 2.1 Å² (charge state: 2) and 492.87 ± 3.2 Å² (charge state: 3). As for FNALFAQGNYSEAAK, where the note is “charge state: 2”, the collision cross section is recorded as 435.05 ± 0.49 Å².

With FPGVGVLPGVPTGAGVK, the collision cross section (charge state: 2) is on record as 421.12 ± 0.5 Å² and the collision cross section (charge state: 3) is 509.46 ± 1.2 Å². Take FPGVGVLPGVPTGAGVKPK: the collision cross section reads like this: (charge state: 2) 467.47 ± 1.8 Å²; (charge state: 3) 560.63 ± 0.35 Å². Regarding FRSGNYR, the collision cross section was 328.09 ± 0.7 Å² (charge state: 2) and 402.54 ± 6.1 Å² (charge state: 3). For FSAYIKNSNPALNDNLEK the same measures were 493.15 ± 3.7 Å² and 521.97 ± 3.2 Å².

As to FSHSVQNSERGK, the collision cross section was 402.29 ± 0.72 Å² (charge state: 2) and 464.33 ± 2.2 Å² (charge state: 3). FSPPSSSLQPGK: for the setting “charge state: 2”, the collision cross section is 371.43 ± 0.67 Å². The substance FSYTSQHSDYGQR displayed a collision cross section (charge state: 3) of 485.4 ± 1 Å².

For the substance FTEYETQVK, the collision cross section (charge state: 2) came out at 363.82 ± 1.3 Å². The same measure, in the same setting: in the case of FVDSKVGEFSGANK it was 415.64 ± 1.8 Å². For FYTEDSPGLK, the collision cross section (charge state: 2) was 352.82 ± 0.55 Å². Turning to GADFLVTEVENGGSLGSKK, the collision cross section came out at 494.06 ± 6.8 Å² (charge state: 2) and 535.68 ± 1.1 Å² (charge state: 3). For GAEKTEVAEPR, the collision cross section came to 369.12 ± 1.5 Å² (charge state: 2) and 445.67 ± 5 Å² (charge state: 3).

For GAPGGRGAQLSVPSPAR, the collision cross section runs as follows: (charge state: 2) 428.52 Å²; (charge state: 3) 492.17 ± 0.93 Å².
